Read-outs that look alike come from different tables or passages of the source.
How the values were obtained:
AUC [1] = biological target: the molecule itself; test: AUC
[2] = substrate: O=C(O)C[C@H](C(=O)O)[C@@H](O)C(=O)O; test: Apparent S0.5 for isocitrate; type: biochemical; details: pH 7.4; 24.0 °C
AUC [3] = biological target: the molecule itself; test: AUC; remark: listed apart in the source

| Protein | stoichiometry N (AUC [1]) | K0.5 [2] | stoichiometry N (AUC [3]) |
| --- | --- | --- | --- |
| IDH1^G15D/IDH2 enzyme (complex, yeast) chain 1: ATAAQAERTLPKKYDGRFTVTLIPGDGVGKEITDSVRTIFEAENIPIDWETINIKQTDHKEGVYEAVESLKRNKIGLKGLWHTPADQTGHGSLNVALRKQLDIYANVALFKSLKGVKTRIPDIDLIVIRENTEGEFSGLEHESVPGVVESLKVMTRPKTERIARFAFDFAKKYNRKSVTAVHKANIMKLGDGLFRNIITEIGQKEYPDIDVSSIIVDNASMQAVAKPHQFDVLVTPSMYGTILGNIGAALIGGPGLVAGANFGRDYAVFEPGSRHVGLDIKGQNVANPTAMILSSTLMLNHLGLNEYATRISKAVHETIAEGKHTTRDIGGSSSTTDFTNEIINKLSTM chain 2: ATVKQPSIGRYTGKPNPSTGKYTVSFIEGDGIGPEISKSVKKIFSAANVPIEWESCDVSPIFVNGLTTIPDPAVQSITKNLVALKGPLATPIGKGHRSLNLTLRKTFGLFANVRPAKSIEGFKTTYENVDLVLIRENTEGEYSGIEHIVCPGVVQSIKLITRDASERVIRYAFEYARAIGRPRVIVVHKSTIQRLADGLFVNVAKELSKEYPDLTLETELIDNSVLKVVTNPSAYTDAVSVCPNLYGDILSDLNSGLSAGSLGLTPSANIGHKISIFEAVHGSAPDIAGQDKANPTALLLSSVMMLNHMGLTNHADQIQNAVLSTIASGPENRTGDLAGTATTSSFTEAVIKRL | 4 | 0.60/0.13 (±0.13/0.01) mM |  |
| ^-5IDH1^D168A/IDH2 enzyme (complex, yeast) chain 1: AERTLPKKYGGRFTVTLIPGDGVGKEITDSVRTIFEAENIPIDWETINIKQTDHKEGVYEAVESLKRNKIGLKGLWHTPADQTGHGSLNVALRKQLDIYANVALFKSLKGVKTRIPDIDLIVIRENTEGEFSGLEHESVPGVVESLKVMTRPKTERIARFAFAFAKKYNRKSVTAVHKANIMKLGDGLFRNIITEIGQKEYPDIDVSSIIVDNASMQAVAKPHQFDVLVTPSMYGTILGNIGAALIGGPGLVAGANFGRDYAVFEPGSRHVGLDIKGQNVANPTAMILSSTLMLNHLGLNEYATRISKAVHETIAEGKHTTRDIGGSSSTTDFTNEIINKLSTM chain 2: ATVKQPSIGRYTGKPNPSTGKYTVSFIEGDGIGPEISKSVKKIFSAANVPIEWESCDVSPIFVNGLTTIPDPAVQSITKNLVALKGPLATPIGKGHRSLNLTLRKTFGLFANVRPAKSIEGFKTTYENVDLVLIRENTEGEYSGIEHIVCPGVVQSIKLITRDASERVIRYAFEYARAIGRPRVIVVHKSTIQRLADGLFVNVAKELSKEYPDLTLETELIDNSVLKVVTNPSAYTDAVSVCPNLYGDILSDLNSGLSAGSLGLTPSANIGHKISIFEAVHGSAPDIAGQDKANPTALLLSSVMMLNHMGLTNHADQIQNAVLSTIASGPENRTGDLAGTATTSSFTEAVIKRL |  |  | 8 |
| ^-5IDH1^G15A/IDH2 enzyme (complex, yeast) chain 1: AERTLPKKYAGRFTVTLIPGDGVGKEITDSVRTIFEAENIPIDWETINIKQTDHKEGVYEAVESLKRNKIGLKGLWHTPADQTGHGSLNVALRKQLDIYANVALFKSLKGVKTRIPDIDLIVIRENTEGEFSGLEHESVPGVVESLKVMTRPKTERIARFAFDFAKKYNRKSVTAVHKANIMKLGDGLFRNIITEIGQKEYPDIDVSSIIVDNASMQAVAKPHQFDVLVTPSMYGTILGNIGAALIGGPGLVAGANFGRDYAVFEPGSRHVGLDIKGQNVANPTAMILSSTLMLNHLGLNEYATRISKAVHETIAEGKHTTRDIGGSSSTTDFTNEIINKLSTM chain 2: ATVKQPSIGRYTGKPNPSTGKYTVSFIEGDGIGPEISKSVKKIFSAANVPIEWESCDVSPIFVNGLTTIPDPAVQSITKNLVALKGPLATPIGKGHRSLNLTLRKTFGLFANVRPAKSIEGFKTTYENVDLVLIRENTEGEYSGIEHIVCPGVVQSIKLITRDASERVIRYAFEYARAIGRPRVIVVHKSTIQRLADGLFVNVAKELSKEYPDLTLETELIDNSVLKVVTNPSAYTDAVSVCPNLYGDILSDLNSGLSAGSLGLTPSANIGHKISIFEAVHGSAPDIAGQDKANPTALLLSSVMMLNHMGLTNHADQIQNAVLSTIASGPENRTGDLAGTATTSSFTEAVIKRL | > 4 |  |  |

Reference: PMC3137751 (Biochemistry, 2010)
